Experimental data taken from a protein production outcome set (Wang et al. 2014).

assay: label from the status in PepcDB records
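Further: failed if final PepcDB status was selected cloned or expressed and not failed if soluble or beyond.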

**Q.** For “MQLNQTNTPFNEEQLALINQLLPMLTPEQQHWLSGYLLNPATTSVSDNKTDIQENEAGITETETSTSTDQSVSEPVSASTEPLDVHVLYGTETGNAEEIAETFETKLKSQNLNVHLWDMDDFPRDSLPEVEHLFIICSTQGVGEPPINALDLYDYLHGDDAPQLDQVNFAVLALGDQDFPDFCQAGKDFDYILGQLGANRVADRVDCDFDYEETAEQWITNMLELLTQASSNTNEETPSVENEDVTIEEPQAPYSKSNPFQAEVLKNTILTQPEASREVRHLEISLEGYREAYEPGDSLVVIPQNDPVLVNQLIDALNWDAETPIQMNDSDSMRSLKEALTHDFEIAKLTPVLMKNAAELLGNPMLNANIQKSEWVQNYIYGKDVIDLIRDFTPVALEPNMLPQLLRKLPPREYSIASSNKVNPNSVHITVRVVKYEAHRRERFGVCSVQLADRTSVGDKLPVYLKKNPNFKFPYDTETPVIMIGAGTGIAPYRAYLQERAYLNLKGEQWLIFGNQNYHHDFLYKDDLEQWLEEGVLSKLDLAFSRETENKIYVQHRIEENSAEFYKWIQAGATIYLCGNKDEMASGVHESLIKVLIKEGNLDETEAEAYLTEMIKNQRYQRDVY”, which protein production is on record?
**A.** The protein production was “failed”.

**Q.** For “MQLQLICEDPSQQSHLDELAARWQLSHTDESDFALVLTAERLELRKVDEPKLGAIFVDLIGGAVGHRRKFGGGKGQAIAKAAGLNKGATPTVLDGTAGLGRDAFVLASLGCKVQMVERHPVVAALLDDGLARAKQDPEIGTWVSERMSLIHASSHDALDQLAQDREFVKPDVVYLDPMYPHPENKKKSALVKKEMRVFQSLVGADLDADGLLEPALALATKRVVVKRPDYANWLNEQKPSMAIETKKNRFDVYVKASMALEHHHHHH”, which protein production is on record?
**A.** Its protein production is “not failed”.

**Q.** With “MQLSGRSSSGLGRAGQLLRRPEVLAFLPALSLLAYWLGGERALVFVALGLPLFYATVGAFRPAAPSVTPDGLALRPQVIASLDRVLQDRESTGRTTACLVLQFDGMDKLLDRHGRATQSEVLARCCDRLCSTLREGDTVARLEGGGLAVALHPVRRLDLQSVVLLAGRLQTAIAAPISVEGTRIHVTCSIGFCLAERTPAPTGRALLDAAQMAADEASRNGPGAVRAYALGMSRNRADRDADRGLLETALDTGQFTGWFQPQIRTEDGAIGGFEVLSRWQHPERGLLLPQDFLPAIERAGLSERLGEVMLFQALTALRHWDRAGLCVPCVAVNFSATDLRNPRLVDRLKWELDRFELTPARLSVEILETVVAEGASDVVVHNIAGLSACGFGVDLDDFGTGHASITTIRRFALRRLKIDRSFVTRADSDAAQRTMLAAIISMARQLGLETLAEGVETPGELATLTALGCGYLQGYAIARPMPLSDATAWLENRRVRLPLAARCATPGS” as the sequence, how does the protein production read?
**A.** The protein production was “failed”.

**Q.** For “MQLSSLTAVSPVDGRYAGKTQALRPIFSEYGLIRFRVMVEVRWLQRLAAHPQITEVPAFSAQANAILNTLAEDFSVEHAERVKEIERTTNHDVKAVEYLLKEQAAKLPELENVSEFIHFACTSEDINNLSHALMLREGRDTVMLPLMRQIADAIRELAIRFADVPMLSRTHGQPASPTTLGKELANVVYRLERQITQIAAVPLLGKINGAVGNYNAHLSAYADIDWEANARAFIEDELGLGFNPYTTQIEPHDYIAELFDAVARFNTILIDFDRDIWGYISLGYFKQRTIAGEIGSSTMPHKVNPIDFENSEGNLGIANALFQHLASKLPVSRWQRDLTDSTVLRNLGVGFAHSVIAYEASLKGISKLELNEQRIAADLDACWEVLAEPIQTVMRRYNIENPYEKLKELTRGKGIGPEALQTFIDGLDMPAQAKAELKKLTPANYIGNAAAQAKRI”, which protein production is on record?
**A.** Its protein production is “not failed”.

**Q.** For “MQMIKPPVQRHSHRRHRLLRSLGHQFSFGFFALCEKQRECKCDMATVMTTNLYNVARHSPHPIIFVCGSWSSLIESLIESAKEEEESMRRRS”, which protein production is on record?
**A.** The protein production was “failed”.

**Q.** With “MQMNNHIRLRKAEGKWVIRTDSAVLGETLNAIELTEGSRDPVIYFPREDVAMVMFDKSEKVTACPLKGEASYYSIVGASGTLKDAAWSYESPKEGLEAIAGYLAFAPDCTKVGQY” as the sequence, how does the protein production read?
**A.** Its protein production is “not failed”.

**Q.** With “MQNAESWFKKYWHLSVLVIAALISVKLRILNPWNSVFTWTVRLGGNDPWYYYRLIENTIHNFPHRIWFDPFTYYPYGSYTHFGPFLVYLGSIAGIIFSATSGESLRAVLAFIPAIGGVLAILPVYLLTREVFDKRAAVIAAFLIAIVPGQFLQRSILGFNDHHIWEAFWQVSALGTFLLAYNRWKGHDLSHNLTARQMAYPVIAGITIGLYVLSWGAGFIIAPIILAFMFFAFVLAGFVNADRKNLSLVAVVTFAVSALIYLPFAFNYPGFSTIFYSPFQLLVLLGSAVIAAAFYQIEKWNDVGFFERVGLGRKGMPLAVIVLTALIMGLFFVISPDFARNLLSVVRVVQPKGGALTIAEVYPFFFTHNGEFTLTNAVLHFGALFFFGMAGILYSAYRFLKRRSFPEMALLIWAIAMFIALWGQNRFAYYFAAVSAVYSALALSVVFDKLHLYRALENAIGARNKLSYFRVAFALLIALAAIYPTYILADAQSSYAGGPNKQWYDALTWMRENTPDGEKYDEYYLQLYPTPQSNKEPFSYPFETYGVISWWDYGHWIEAVAHRMPIANPFQAGIGNKYNNVPGASSFFTAENESYAEFVAEKLNVKYVVSDIEMETGKYYAMAVWAEGDLPLAEKYYGGYFYYSPTGTFGYANSQWDIPLNSIIIPLRIPSELYYSTMEAKLHLFDGSGLSHYRMIYESDYPAEWKSYSSQVNLNNESQVLQTALYEAVMRARYGVSPTMGTQEVLYKYAYTQLYEKKMGIPVKIAPSGYVKIFERVKGAVVTGKVSANVTEVSVNATIKTNQNRTFEYWQTVEVKNGTYTVVLPYSHNSDYPVKPITPYHIKAGNVVKEITIYESQVQNGEIIQLDL” as the sequence, how does the protein production read?
**A.** Its protein production is “failed”.

**Q.** For “MQNIILTTKKIFRLAFILILIAATFMSCKTAPAKEETLIDLIKAGKSEELQERLNSSAINMKDEEGNSLLHIAAVKNDPIIVRLLINMDADIEAKNNTGATPLAAALNNSAYDAVKVLVEYNANIFAKDNEGEKPFDTACKNNVPNLILTAQTIKQKDENQDTVLHLAVKAMDKQLTKQILAIAPPETVYNKENLSPLAIAYKHNNAEDSAEIASILLLAGIQPMGKDFAEFETASLARNYSMRFADGETLLHIFARKGYTGFLKFLIKNKVPIDVKDISSSTAMQEAVYNGNTEAAILLLQAGADPNSRNSSGNTALHLVMPEASRSKLFNELITAGANPNLKDNYGETPLHVAARIGMNDDILDQLLKAGADINERNKKGQTPLILAIDRNQTQQVDFLINHGADIHAEDKSGESAFIHSLSMGLPMVEHVVTEKNSTERDSNGSTPLHLAVSHRASSDIIYYLVEKKSLINTRNKLGNTPLHIAAEKNYREAGEILIANNADIFYANLNGDSPLKFALTLREGREDWMINSHTIGAGDGAGNTPLHLAAEWQILPMIPYLIDKGADINARNTNNETPLFNAVRTDSPEAIKALLGEGVSKKADLDARDFLGNTILHAAVRWSAYKAADFILSKDTEEYVRLINAKNLAGKTVLHEAAKQGEIKFINIFLKAKVDVNAADETGRSPLSEAVLANQTQAIDLLLKNGASPVQQDMYGRTALHEAVEISEESIILVRNAGGNPLTKDAYGKTPFSLALNKNIRTVDLVLGNDSLLADTDGDTPLHIAVKERVSLDYFQRIMKKKYPVNKRNKNGETALLLAIQNSQKEITRALLAGGADPFIVNNKGVSAITEIFMHHPDFTPIAAEFSLKQTDTLGEGMLHYAAKFADVQTLKDILALPGIKLDVKNTAGETPYQVALRWNRSEIAELLKTE”, which protein production is on record?
**A.** The protein production was “failed”.

**Q.** With “MQNIVIRQCGHEDESWMNTLYKQNSKQALYQLGKSLDEGFVQDNAHFDQVMKQWIEIGAVYAAEIEGDPVGFLVIQRERAQHGPEIIQYISSHENILILQERALSDLHYAGYGPVLVSPHARGKGVAKALHDHALHILKAEKFDAMVAFVDAENPTSLKIHVDALDMQIIDKVVLASGQFFIIGQVIG” as the sequence, how does the protein production read?
**A.** Its protein production is “failed”.

**Q.** With “MQNNSYGYAVSVRVGGKEHRHWERYDIDSDFLIPADSFDFVIGRLGPEAAIPDLSGESCEVVIDGQIVMTGIIGSQRHGKSKGSRELSLSGRDLAGFLVDCSAPQLNVKGMTVLDAAKKLAAPWPQIKAVVLKAENNPALGKIDIEPGETVWQALTHIANSVGLHPWLEPDGTLVVGGADYSSPPVATLCWSRTDSRCNIERMDIEWDTDNRFSEVTFLAQSHGRSGDSAKHDLKWVYKDPTMTLHRPKTVVVSDADNLAALQKQAKKQLADWRLEGFTLTITVGGHKTRDGVLWQPGLRVHVIDDEHGIDAVFFLMGRRFMLSRMDGTQTELRLKEDGIWTPDAYPKKAEAARKRKGKRKGVSHKGKKGGKKQAETAVFE” as the sequence, how does the protein production read?
**A.** Its protein production is “not failed”.

**Q.** For “MQPCPSEAPRVLHALTRRGMALALAATLSLVLSACGGGGDDTAAATTAPPSSNAVTPSPSPAPAPTYSVGGTVAGLGSGLSVKLLNNGGDAVTVTANGNFQFPTALASGAQYAATVGTRPSGQQCTIANDSGTMGSANVTNIAVTCSTRPLFAYTANSNDNTVSAYTLDPTTGAPTLIGTPISVGQGPLSLIADKAGKFVYVVDGNDNSVTTLAIDSETGLLTISGTPATTGMQPFNIARTPASTFAYTTNFGDNTLSGFSINATTGVLTSIGTIAAGTNPYTIVINKAGTFAYVVNAASGAGTPSAMVFSINGATGALTAVGSPVATGNAPFYIALHPAGTFAYVANSQDNTVQVYAINQTTGALTAVGSPVATGQGPIPIAIHPSGLFAYVGNVFDNTVSLYAINTGTGALTLKSTLATGNDPLAITLNDAGSIAYIVNGVDHDVVAYAVDSSTGALTSVATAQTGLLPRAFAIVAVP”, which protein production is on record?
**A.** The protein production was “failed”.

**Q.** For “MQPEITSYRHPATGTVSYLVVDPATFLCAIVDPVLDFDPVTEEIDTRFVDAIIADIRAKDLGPTWILETGLHTGHLSAAGHLKYETGASVCIGAGVVESLKRLAPQFGETMVDLDGWDFDKLAQDGDTFPMGGLEITPIALTGRLPGAVAYRMADMVFTGDLVLAPAEGSGRCDIPGADAGKAWDDARKILALPPETRIMPGVSATAACESTVADAKASNIQLNDTIDQLDFIALRTAADAFLPDPELAAAALRVAIRAGRPPSPPESGPRFPAVDLSKL”, which protein production is on record?
**A.** The protein production was “failed”.

**Q.** For “MQPLLRTAGFSLLLLAASCGVGAQPEPQNSRLTAIKMDGELPARAAIAGLFAELDFQQATQSYLWALPLVSYAQWQGEFRDKLHAGNGDLMVLESYEDKLGVITANATTPYILGFVDLNQTGPMVVELPPGPTAGGVGDFWQRAITDMGQTGPDQGKGGKYLVLPPGHPEPSDADQYYLAKSQTMNVLVGFRVLDPDPAKGKALVQQFKMYPYAQRATPPATRLLSPGGKPWSGTQPRGMAYWERLHQIIQQEPVNERDRFYMAMLASLGIEKDKPFNPNEHQRQALEQGARMGELIAQANTFAKRFADAQYWPDRQWDKVLNIADPSQRVAYYDQLWERSAWFYEAVTNTKGMVSKTPGLGQTYLGAYTDHNGQWLDGGKHYRLHLGSNPPARQFWSLTVYDSASRCLIDNPQRKADLSSRQDLKKNPDGSLDLYFGPSAPKGLESNWVQTLPGKHWFSYFRLYAPTEAYFDKRWKLDDITLVQ”, which protein production is on record?
**A.** Its protein production is “failed”.

**Q.** Which protein production does the source give for “MQPRLVIAGTHSGVGKTTVTLGLMAAFVEKGNIVQGFKCGPDYIDPSYHRAVTKRASRNLDSWMVSEDVVNDIFIEGCNGADLSIIEGVMGFYDGKASTSDKGSTADISLLLQAPVLLVVDISGMARSAAAVVKGFQQLNEKVKIAGVILNGAGSERHAEMCSEAIKEACGIPALGYLKKGDVPSIPERHLGLVPALERGEHDSLFSQLAAVVSRQFDLERIERLALEASALSRRTNLFQQTKRPSVVKIAVAYDAAFHFYYEENFTLLRQAGAELVYFSPLRGEDLPSHCDGLYLGGGFPEEFADELSQWIKDHPQLKKRVQSGLPTLAECGGYMFLGEQLTTTKGKTVEMAGVIPMVVQMENKLVSLGYRDVTPLDDSFLLSKGQQIRGHEFHYSKAVYTETERPAYFVKGLFGEGKEGYMSDHLLAGYTHLHFASEPAVATQWVKACEVYKNRRLHRGQVSQLEHHHHHH” here?
**A.** The protein production was “not failed”.
